Substitutions are numbered along the chain they refer to. Numbers in names are those of the source.
B1: H240-Kn132/H240-Hl071/L73-k0 (antibody, human IgG1, kappa)
heavy 1: QDQLVQSGAEVKKPGASVKVSCKASGFNIKDTYIQWVRQAPGQGLEWMGRIDPLRKQTKYREKFEGRVTITADTSTNTAYMELSSLRSEDTAVYYCVRSGREFDYWGQGTLVTVSSASTKGPSVFPLAPSSKSTSGGTAALGCLVKDYFPEPVTVSWNSGALTSGVHTFPAVLQSSGLYSLSSVVTVPSSSLGTQTYICNVNHKPSNTKVDKKVEPKSCDKTHTCPPCPAPELLGGPSVFLFPPKPKDTLMISRTPEVTCVVVDVSHEDPEVKFNWYVDGVEVHNAKTKPREEQYNSTYRVVSVLTVLHQDWLNGKEYKCKVSNDALPMPIEETISKAKGQPREPQVCTLPPSRDELTKNQVSLWCLVKGFYPSDIAVEWESNGQPENNYKTTPPVLDSDGSFFLYSKLTVDKSRWQQGNVFSCSVMHEALHNHYTQKSLSLSP
heavy 2: B1 heavy 1 with C348Y, D355C, W365S, L367A, Y406V
light: DIQMTQSPSSLSASVGDRVTITCRASQDIHKYIAWYQQKPGQAPRLLIQYTSTLQPGVPSRFSGSGSGTDYTFTISSLQPEDIATYYCLQYEQLRTFGGGTKVEIKRTVAAPSVFIFPPSDEQLKSGTASVVCLLNNFYPREAKVQWKVDNALQSGNSQESVTEQDSKDSTYSLSSTLTLSKADYEKHKVYACEVTHQGLSSPVTKSFNRGEC
notes: anti-epiregulin IgG1 called homodimerized: K326D/A330M/K334E in both H chains; also called H240-Kn132/H240-HI071/L73-k0
B2: GpH7-A5/GpH7-B78/GpL16-k0 (antibody, human IgG1, kappa)
heavy 1: not shown
heavy 2: QVQLVQSGAEVKKPGASVTVSCKASGYTFTDYEMHWIRQPPGEGLEWIGAIDPKTGDTAYSESFQDRVTLTADKSTSTAYMELSSLTSEDTAVYYCTRFYSYTYWGQGTLVTVSSASTKGPSVFPLAPSSKSTSGGTAALGCLVKDYFPEPVTVSWNSGALTSGVHTFPAVLQSSGLYSLSSVVTVPSSSLGTQTYICNVNHKPSNTKVDKKVEPKSCDKTHTCPPCPAPELLGGPDVFLFPPKPKDTLMISRTPEVTCVVVDVSHEDPEVKFNWYVDGVEVHNAKTKPREEQYNSTYRVVSVLTVLHQDWLNGKEYKCKVSNKALPLPEEKTISKAKGQPREPQVYTLPPSRDELTKNQVSLTCLVKGFYPSDIAVEWESNGQPENNYKTTPPVLDSDGSFFLYSKLTVDKSRWQQGNVFSCSVMHEALHNHYTQESLSLSP
light: DIVMTQSPLSLPVTPGEPASISCQASESLVHSNRNTYLHWYLQKPGQSPQLLIYKVSNRFSGVPDRFSGSGSGTDFTLKISRVEAEDVGVYYCSQNTHVPPTFGQGTKVEIERTVAAPSVFIFPPSDEQLKSGTASVVCLLNNFYPREAKVQWKVDNALQSGNSQESVTEQDSKDSTYSLSSTLTLSKADYEKHKVYACEVTHQGLSSPVTKSFNRGEC
notes: heterodimerized anti-glypican 3 IgG1; S239D/A330L/I332E in one H chain
B3: GpH7-A57/GpH7-B78/GpL16-k0 (antibody, human IgG1, kappa)
heavy 1: B2 heavy 2 with D354K, H433R, E437K
heavy 2: B2 heavy 2
light: B2 light
notes: anti-glypican 3 IgG1 called homodimerized: S239D/A330L/I332E in both H chains
B4: GpH7-TA7/GpH7-B3/GpL16-k0 (antibody, human IgG1, kappa)
heavy 1: B2 heavy 2 with L232Y, G234W, D237S, S296A, L328A, E330I, D354K, H433R, E437K
heavy 2: not shown
light: B2 light
notes: heterodimerized anti-glypican 3 IgG1; L234Y/G236W/S298A in one H chain
B5: GpH7-TA7/GpH7-B78/GpL16-k0 (antibody, human IgG1, kappa)
heavy 1: B2 heavy 2 with L232Y, G234W, D237S, S296A, L328A, E330I, D354K, H433R, E437K
heavy 2: B2 heavy 2
light: B2 light
notes: heterodimerized anti-glypican 3 IgG1; L234Y/G236W/S298A in one H chain, S239D/A330L/I332E in the other
B6: GpH7-TA7/GpH7-TA45/GpL16-k0 (antibody, human IgG1, kappa)
heavy 1: B2 heavy 2 with L232Y, G234W, D237S, S296A, L328A, E330I, D354K, H433R, E437K
heavy 2: B2 heavy 2 with L232Y, G234W, D237S, S296A, L328A, E330I
light: B2 light
notes: anti-glypican 3 IgG1 called homodimerized: L234Y/G236W/S298A in both H chains
B7: GpH7-A5/GpH7-B3/GpL16-k0 (antibody, human IgG1, kappa)
heavy 1: not shown
heavy 2: not shown
light: B2 light
notes: also called HeCon Ab
B8: H240-G1d-CD/H240-G1d-CD/L73 (antibody, human IgG1, kappa)
heavy: QDQLVQSGAEVKKPGASVKVSCKASGFNIKDTYIQWVRQAPGQGLEWMGRIDPLRKQTKYREKFEGRVTITADTSTNTAYMELSSLRSEDTAVYYCVRSGREFDYWGQGTLVTVSSASTKGPSVFPLAPSSKSTSGGTAALGCLVKDYFPEPVTVSWNSGALTSGVHTFPAVLQSSGLYSLSSVVTVPSSSLGTQTYICNVNHKPSNTKVDKKVEPKSCDKTHTCPPCPAPELLGGPSVFLFPPKPKDTLMISRTPEVTCVVVDVSHEDPEVKFNWYVDGVEVHNAKTKPREEQYNSTYRVVSVLTVLHQDWLNGKEYKCKVSNKALPAPIEKTISKAKGQPREPQVYTLPPSRDELTKNQVSLTCLVKGFYPSDIAVEWESGCRGDCLPENNYKTTPPVLDSDGSFFLYSKLTVDKSRWQQGNVFSCSVMHEALHNHYTQKSLSLSP
light: B1 light
notes: anti-EREG antibody with the RGD peptide inserted in the CH3 regions (control)
B9: H240-Kn125-CD/H240-Hl076/L73 (antibody, human IgG1, kappa)
heavy 1: B1 heavy 1 with D269E, C348Y, D355C, W365S, L367A, Y406V
heavy 2: B8 heavy with L233Y, L234Q, G235W, S238M, H267D, D269E, S297A, Y348C, T365W
light: B1 light
notes: heterodimerized anti-EREG antibody with the RGD peptide inserted in a CH3 region (control); also called H240-Kn125-CD/H240-HI076/L73
B10: H240-Kn125/H240-Hl076-ma1/L73 (antibody, human IgG1, kappa)
heavy 1: QDQLVQSGAEVKKPGASVKVSCKASGFNIKDTYIQWVRQAPGQGLEWMGRIDPLRKQTKYREKFEGRVTITADTSTNTAYMELSSLRSEDTAVYYCVRSGREFDYWGQGTLVTVSSASTKGPSVFPLAPSSKSTSGGTAALGCLVKDYFPEPVTVSWNSGALTSGVHTFPAVLQSSGLYSLSSVVTVPSSSLGTQTYICNVNHKPSNTKVDKKVEPKSCDKTHTCPPCPAPELLGGPSVFLFPPKPKDTLMISRTPEVTCVVVDVSGCRGDCLEPEVKFNWYVDGVEVHNAKTKPREEQYNSTYRVVSVLTVLHQDWLNGKEYKCKVSNDALPMPIEETISKAKGQPREPQVYTLPPSRCELTKNQVSLSCAVKGFYPSDIAVEWESNGQPENNYKTTPPVLDSDGSFFLVSKLTVDKSRWQQGNVFSCSVMHEALHNHYTQKSLSLSP
heavy 2: B1 heavy 1 with L233Y, L234Q, G235W, S238M, H267D, D269E, S297A, D325K, M329A, E333K
light: B1 light
notes: heterodimerized anti-EREG antibody with the RGD peptide inserted in a loop region of the H240-Hl076 chain; also called H240-Kn125/H240-HI076-ma1/L73

The binders below were run against T1, FcγRIIIa(F) extracellular domain with C-terminal His tag (human, UniProt P08637 17-208) (assay: SPR (Biacore), captured antibody, FcγR analyte, 1:1 Langmuir fit;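 further: surface plasmon resonance at 25 °C in HBS-EP+ running buffer, antibody captured on sensor chip, FcγR flowed over as analyte in the same buffer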).
T1 construct: extracellular domain; polymorphic form F158; also called FcγRIIIa F type
T1 sequence (P08637 other isoform, or with tags, fused parts or gaps): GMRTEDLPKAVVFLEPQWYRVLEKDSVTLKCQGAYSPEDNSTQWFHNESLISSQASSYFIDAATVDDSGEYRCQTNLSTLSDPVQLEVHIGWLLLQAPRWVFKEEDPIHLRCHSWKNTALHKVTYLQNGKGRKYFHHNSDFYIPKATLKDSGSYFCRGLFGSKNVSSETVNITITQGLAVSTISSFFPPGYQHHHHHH

Binder B1 has a Kd of 77 nM.

The binders below were run against T2, FcγRIIIa(V) extracellular domain with C-terminal His tag (human, UniProt P08637 17-208) in the same assay as above.
T2 construct: extracellular domain; polymorphic form V158; also called FcγRIIIa V type
T2 sequence (P08637 other isoform, or with tags, fused parts or gaps): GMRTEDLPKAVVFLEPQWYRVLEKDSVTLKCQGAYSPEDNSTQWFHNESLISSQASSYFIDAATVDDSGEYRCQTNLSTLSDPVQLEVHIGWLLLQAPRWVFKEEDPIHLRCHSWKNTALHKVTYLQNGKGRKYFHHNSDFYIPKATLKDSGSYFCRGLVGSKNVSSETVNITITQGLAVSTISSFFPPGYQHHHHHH

With B1 the Kd was 16 nM.

The binders below were run against T3, FcγRIIIa extracellular domain with C-terminal His tag (allotype not given) (human, UniProt P08637 17-208) (assay: SPR; KD of GpH7-A5/GpH7-B3/GpL16-k0 for FcγRIIIa divided by KD of this antibody).
T3 construct: extracellular domain; also called 3a

In order of rising “KD ratio2” value:
1. B6  0.49 fold
2. B7  1 fold
3. B4  5.1 fold
4. B2  30 fold
5. B3  263 fold
6. B5  347 fold

Each binder was assayed against T3, FcγRIIIa extracellular domain with … (assay: SPR (Biacore), captured antibody, FcγRIIIa analyte, 1:1 Langmuir fit).
Procedure: (§1) The antibody of interest was analyzed for its interaction with FcγR using a BiaCore™ T100, BiaCore™ A100, or BiaCore™ 4000 surface plasmon resonance system (GE Healthcare Japan Corp.). The running buffer used was HBS-EP+ (GE Healthcare Japan Corp.). The assay temperature was set to 25° C. The sensor chips used were: a chip prepared by immobilizing antigenic peptides onto Series S Sensor Chip CM5 (GE Healthcare Japan Corp.) by the amine coupling method; a chip prepared by immobilizing antigenic peptides biotinylated in advance onto Series S Sensor Chip SA (certified) (GE Healthcare Japan Corp.) through their interaction; a chip prepared by immobilizing protein L (ACTIGEN, BioVision, Inc.) onto Series S Sensor Chip CM5 (GE Healthcare Japan Corp.); and a chip prepared by immobilizing protein A/G (Thermo Fisher Scientific K.K.) onto Series S Sensor Chip CM5 (GE Healthcare Japan Corp.). The antibody of interest was captured onto any of these chips and allowed to interact with FcγR diluted with a running buffer. The antibody captured on the chip was washed off through the reaction of 10 mM glycine-HCl (pH 1.5) to regenerate the chip, which was repetitively used.

In order of rising Kd:
1. B5  4.7 nM
2. B3  6.2 nM
3. B2  54 nM
4. B4  320 nM
5. B7  1600 nM
6. B6  3300 nM

Each binder was assayed against T4, FcγRIIIa (human, UniProt P08637 17-208) (assay: SPR (Biacore T100), antibody captured on protein L chip, FcγRIIIa as analyte, TBS(+), 25 C, 1:1 Langmuir fit).
T4 construct: extracellular domain; also called 3a
Procedure: Specifically, their interaction with FcγRIIIa was analyzed using BiaCore™ T100 surface plasmon resonance system (GE Healthcare Japan Corp.). The running buffer used was the TBS(+) solution used in the preceding paragraph. The assay temperature was set to 25° C. Protein L was immobilized onto Series S Sensor Chip CM4 (GE Healthcare Japan Corp.) by the amine coupling method to prepare a chip. Each antibody of interest was captured onto the protein L-immobilized chip and allowed to interact with FcγRIIIa diluted with a running buffer. The antibody captured on the chip was washed off through the reaction of 10 mM glycine-HCl (pH 1.5) to regenerate the chip, which was repetitively used.
Each antibody was evaluated for its binding activity against FcγRIIIa with binding activity against FcγRIIIa and dissociation constant for FcγRIIIa as main indexes. […] Specifically, a sensorgram obtained by assay using BiaCore™ surface plasmon resonance Evaluation Software was globally fit into the 1:1 Langmuir model to calculate an association rate constant ka (L/mol/s) and a dissociation rate constant kd (1/s). From these values, the dissociation constant KD (mol/L) was calculated.

In order of rising Kd:
1. B9  0.85 nM
2. B10  2.1 nM
3. B8  310 nM

Each binder was assayed against T3, FcγRIIIa extracellular domain with … (assay: SPR; KD of GpH7-G1d/GpL16-k0 for FcγRIIIa divided by KD of this antibody).
Procedure: as §1

In order of rising “KD ratio1” value:
1. B6  0.37 fold
2. B7  0.75 fold
3. B4  3.8 fold
4. B2  23 fold
5. B3  199 fold
6. B5  261 fold
